Biological target: GFP-BLM (full-length Bloom helicase, GFP fusion protein) (human) (UniProt P54132)
Test: photobleaching step counting (single-molecule TIRFM, DNA curtain); GFP-tagged BLM (0.2 nM injected) bound to the free ends (30-nt 3' ssDNA overhang) of lambda-DNA tethered to a lipid bilayer; number of GFP photobleaching steps per end-bound complex; BLM buffer (20 mM Tris-HCl pH 7.5, 1 mM MgCl2, 2 mM ATP, 1 mM DTT, 0.2 mg/ml BSA), 37 °C; oligomer counted on DNA ends

stoichiometry N: 1 to 6 monomers
stoichiometry N (BLM monomers per DNA end): 3.6
Substance: GFP-BLM (full-length Bloom helicase, GFP fusion protein), P54132 1-1417 (enzyme; other documents disagree on this pair)
